The source of these data is US12281147.

The term Kd denotes the concentration at which binding is half-saturated.

The target in experiment [1] is human IL-21R on T cells of primary human PBMCs (human) (UniProt Q9HBE5). Kind of experiment: cell-based or functional assay.
Experiment [2] deals with mouse IL-21R on T cells of mouse splenocytes (mouse) (UniProt Q9JHX3). The experiment in a line: cell-based or functional assay.
For experiment [3], the target named is mouse IL-21R, His-tagged (BLI antigen) (mouse) (UniProt Q9JHX3). Kind of experiment: BLI.
Experiment [4] concerns the target recombinant human IL-21R His tag (Acro Biosystems) (human) (UniProt Q9HBE5). The experiment in a line: BLI. For orientation: In BLI a coated tip is dipped into the sample, and binding shifts an interference pattern.

“IL-21_human_R34S Fc fusion protein (from UniProt Q9HBE4 30-162)” yielded a Human T cell EC50 (pM), pSTAT3 phosflow in experiment [1] of 5.6 pM. In experiment [2], this substance showed a Mouse T cell EC50 (pM), pSTAT3 phosflow of 8500 pM. In addition, the figures for the dissociation constant Kd in experiment [3] and in experiment [4] were 28.7 nM and 31.5 nM, respectively.
Consider “IL-21_human_E72S Fc fusion protein (from UniProt Q9HBE4 30-162)”, for which the Human T cell EC50 (pM), pSTAT3 phosflow in experiment [1] worked out at 31 pM. The substance also returned a Mouse T cell EC50 (pM), pSTAT3 phosflow in experiment [2] of 47000 pM. The dissociation constant Kd in experiment [3] was 7.75 nM.
In turn, “IL-21_human_S74H Fc fusion protein (from UniProt Q9HBE4 30-162)” displayed a Human T cell EC50 (pM), pSTAT3 phosflow in experiment [1] of 3.6 pM. This substance displayed a Mouse T cell EC50 (pM), pSTAT3 phosflow in experiment [2] of 1900 pM. Also, the dissociation constant (Kd) in experiment [4] worked out at 12.3 nM.
Substance “IL-21_human_Y52Q Fc fusion protein (from UniProt Q9HBE4 30-162)” returned a Human T cell EC50 (pM), pSTAT3 phosflow in experiment [1] of 8.7 pM. Moreover, the Mouse T cell EC50 (pM), pSTAT3 phosflow in experiment [2] was 9200 pM. Moreover, the dissociation constant (Kd) worked out at 19.4 nM in experiment [3] and 14.4 nM in experiment [4].
In experiment [2], “IL-21_human_D33P Fc fusion protein (from UniProt Q9HBE4 30-162)” registered a Mouse T cell EC50 (pM), pSTAT3 phosflow of 1800 pM. The same substance had a Kd in experiment [3] of 19.8 nM.
Turning to “IL-21_human_W73L Fc fusion protein (from UniProt Q9HBE4 30-162)”, the Mouse T cell EC50 (pM), pSTAT3 phosflow in experiment [2] turned out to be 6900 pM. Besides, the Kd in experiment [3] was 19.9 nM; in experiment [4], 22.8 nM.
The corresponding values for “IL-21_human_P108L Fc fusion protein (from UniProt Q9HBE4 30-162)” are 71000 pM, 11.8 nM and 3.21 nM.
